In patent US7718626B2, “ErbB3 binding protein compositions and methods of use” (University of Maryland, Baltimore, priority 2005, dated 2010):

Test system: LNCaP cells
Assay: Growth in steroid-reduced medium with DHT and/or bicalutamide
Type: cell-based, human
Conditions: ebp1 transfectants (vector controls approximately 70%)
Method: Cell Growth Assays: To measure growth in complete media, cells (2×10^4) were seeded in triplicate in individual wells of 12-well tissue culture plates in RPMI-1640 with 10% FBS and cultured for the indicated number of days. Cells were trypsinized, stained with Trypan Blue (0.4%), and counted in a hemacytometer. […] Colonies were counted after 10 days of incubation. For studies assessing the effect of dihydrotestosterone (DHT) on cell growth, cells (2×10^4) were plated in 12-well plates in complete media. After a 24-hour attachment period, the medium was replaced with steroid-free medium [phenol red-free RPMI 1640 and 5% charcoal-stripped FBS (Sigma)] for 48 hours. The final concentration of testosterone in the steroid-reduced media was less than 5 pM. After 48 hours of steroid depletion, cells were re-fed with fresh steroid-reduced medium with or without the indicated concentrations of DHT and/or bicalutamide (10 μM), and total cell numbers were assessed 7 days later.

B1: Ebp1: ErbB3 binding protein (SEQ ID NO: 2), tested by stable ectopic expression (ebp1 transfection) in LNCaP cells (protein)
chain: MSGEDEQQEQTIAEDLVVTKYKMGGDIANRVLRSLVEASSSGVSVLSLCEKGDAMIMEETGKIFKKEKEMKKGIAFPTSISVNNCVCHFSPLKSDQDYILKEGDLVKIDLGVHVDGFIANVAHTFVVDVAQGTQVTGRKADVIKAAHLCAEAALRLVKPGNQNTQVTEAWNKVAHSFNCTPIEGMLSHQLKQHVIDGEKTIIQNPTDQQKKDHEKAEFEVHEVYAVDVLVSSGEGKAKDAGQRTTIYKRDPSKQYGLKMKTSRAFFSEVERRFDAMPFTLRAFEDEKKARMGVVECAKHELLQPFNVLYEKEGEFVAQFKFTVLLMPNGPMRITSGPFEPDLYKSEMEVQDAELKALLQSSASRKTQKKKKKKASKTAENPTSGETLEENEAGD
modifications: Homo Sapien
- growth inhibition by the withdrawal of androgens: 60%
